Test results reported in patent US20190194268A1 (DONALD DANFORTH PLANT SCIENCE CENTER, published 2019).
“And” between values parts separate entries of the source, which are not always exact repeats. Equal values may be shown once. “Also recorded” adds a separate entry of the source. Read-outs that look alike come from different tables or passages of the source.

Legend:
[1] = test system: Fusarium culmorum; conditions: low salt in vitro assay conditions; U.S. Pat. No. 6,916,970; cited from earlier work
[2] = test system: Verticillium dahliae; conditions: low salt in vitro assay conditions; U.S. Pat. No. 6,916,970; cited from earlier work
[3] = test system: F. graminearum PH-1; format: cell-based, Fusarium graminearum
[4] = protein-lipid overlay (PIP Strips, PIP Array); format: binding; conditions: for binding to PI3P, PI4P and PI5P: Example 2, PIP Strips, 1 μg/ml protein, FIG. 9
Procedure: (§1) To test the binding properties of MtDefS peptide A (MtDefS Peptide A; SEQ ID NO:4) and MtDef5FL1 (SEQ ID NO:7), a protein-lipid overlay experiment was performed using PIP Strips™ (2×6 cm nitrocellulose membranes) that are spotted with 100 pmol of various biologically active lipids (Echelon Biosciences, Salt Lake City, Utah). Briefly, lipid strips were blocked with 10 mL of blocking buffer, PBS-T/3% fat free BSA for 12-16 h at 4° C. with gentle agitation. The blocking buffer was discarded and the lipid strips were incubated with 5 mL of PBS-T/3% fat free BSA containing 1 μg/ml of MtDef5 peptide A or MtDef5FL1 for 60 min at 4° C. After hybridization, protein solution was discarded and the strips were then washed with PBS-T three times with gentle agitation for 20 minutes each at room temperature. The protein-lipid interactions were detected by subsequently incubating lipid strips with rabbit anti-MtDef5 peptide A derived synthetic peptide (1 μg/ml) diluted in 5 mL of blocking buffer with gentle agitation for 60 min at 4° C. The lipid strips were washed with PBS-T two times with gentle agitation, for 15 minutes each wash, at room temperature. HRP-conjugated Goat Anti-Rabbit IgG secondary antibody (Thermo Scientific, Cat no: SA 1-9510) diluted 1:4000 in blocking buffer was added to the lipid strips and incubated for 60 min at 4° C. After two washes with PBS-T, chemiluminescence was detected using SuperSignal® West Femto Maximum Sensitivity substrate kit (Thermo Scientific, Cat no: 34094) following the manufacturer's protocol.
(§2) To test the binding properties of MtDef5 and its γ-core motif variants, a protein-lipid overlay experiment was performed using PIP Strips™ (2×6 cm nitrocellulose membranes) that are spotted with 100 pmol of various biologically active lipids, respectively (Echelon Biosciences, Salt Lake City, Utah). To determine relative degree of the binding of MtDef5, PIP Array (Echelon Biosciences, UT) pre-spotted with concentration gradient of various phosphoinositides was used. Briefly, lipid strips and arrays were blocked with 10 mL of blocking buffer, PBS-T/3% fat free BSA for 12-16 h at 4° C. with gentle agitation. The blocking buffer was discarded and the lipid strips and arrays were incubated with 5 mL of PBS-T/3% fat free BSA, containing 3 μg/ml of MtDef5 or its variants for 60 min at 4° C. […] The protein-lipid interactions were detected by subsequently incubating lipid strips and arrays with rabbit anti-MtDef5 derived synthetic peptide (1 μg/ml) antibody diluted in 5 mL of blocking buffer with gentle agitation for 60 min at 4° C. […] After two washes with PBS-T, chemiluminescence was detected using SuperSignal® West Femto Maximum Sensitivity substrate kit (Thermo Scientific, Cat no: 34094) following the manufacturer's protocol.

[5] = protein-lipid overlay (PIP Strips); format: binding
Procedure: as §1
To test the binding properties of MtDef5 and its γ-core motif variants, a protein-lipid overlay experiment was performed using PIP Strips™ (2×6 cm nitrocellulose membranes) that are spotted with 100 pmol of various biologically active lipids, respectively (Echelon Biosciences, Salt Lake City, Utah). To determine relative degree of the binding of MtDef5, PIP Array (Echelon Biosciences, UT) pre-spotted with concentration gradient of various phosphoinositides was used. Briefly, lipid strips and arrays were blocked with 10 mL of blocking buffer, PBS-T/3% fat free BSA for 12-16 h at 4° C. with gentle agitation. The blocking buffer was discarded and the lipid strips and arrays were incubated with 5 mL of PBS-T/3% fat free BSA, containing 3 μg/ml of MtDef5 or its variants for 60 min at 4° C. After hybridization, protein solution was discarded and the strips and arrays were then washed with PBS-T three times with gentle agitation for 20 minutes each at room temperature. The protein-lipid interactions were detected by subsequently incubating lipid strips and arrays with rabbit anti-MtDef5 derived synthetic peptide (1 μg/ml) antibody diluted in 5 mL of blocking buffer with gentle agitation for 60 min at 4° C. The lipid strips and arrays were washed with PBS-T two times with gentle agitation, for 15 minutes each wash, at room temperature. HRP-conjugated Goat Anti-Rabbit IgG secondary antibody (Thermo Scientific, Cat no: SA 1-9510) diluted 1:4000 in blocking buffer was added to the lipid strips and arrays and incubated for 60 min at 4° C. After two washes with PBS-T, chemiluminescence was detected using SuperSignal® West Femto Maximum Sensitivity substrate kit (Thermo Scientific, Cat no: 34094) following the manufacturer's protocol.

[6] = protein cross-linking (BS3) oligomerization assay; conditions: SDS-PAGE, FIG. 19, FIG. 23
Procedure: (§3) To determine the oligomeric status of MtDef5FL1 and its γ-core motif variants, protein cross-linking experiments were performed in the presence or absence of PIPs cross-linked with bis[sulfosuccinimidyl] suberate (BS3) substrate. Briefly, MtDef5 and its γ-core motif variants, prepared in 1× PBS buffer, at 1.5 mg/ml (5 μl) were incubated with 2.73 mM PI(3)P or PI(4)P or PI(5)P (1.5 μl) at room temperature for 30 min. The cross-linking reaction was initiated by addition of freshly dissolved water soluble 12.5 mM BS3 (0.5 μl) and incubated for 30 min at room temperature. After crosslinking, samples were reduced with 100 mM dithiothreitol (DTT) and separated on a 4-20% (Bio-Rad, TGX Stain-Free™ precast gels) SDS-PAGE. The oligomerization pattern was visualized using a Bio-Rad ChemiDoc XRS+ system.

[7] = biological target: the molecule itself; test: BS3 cross-linking with PIP, SDS-PAGE; self-oligomerization
Procedure: as §3

[8] = test system: Fusarium virguliforme; format: cell-based
[9] = test system: Neurospora crassa; format: cell-based
[10] = test system: Alternaria brassicicola; format: cell-based; conditions: Example 6, FIG. 15
[11] = test system: Colletotrichum higginsianum; format: cell-based; conditions: Example 6, FIG. 15
[12] = test system: Botrytis cinerea; format: cell-based; conditions: Example 6, FIG. 15
[13] = test system: F. graminearum; format: cell-based, Fusarium graminearum
[14] = test system: F. virguliforme; format: cell-based, Fusarium virguliforme
[15] = test system: N. crassa; format: cell-based, Neurospora crassa
[16] = phospholipid binding / protein-lipid overlay; conditions: Example 6, PIP strip, 3 μg/ml protein, FIG. 18A
Procedure: as §2

[17] = test system: F. graminearum conidia and germlings; format: cell-based, Fusarium graminearum; conditions: DyLight550-labeled, 3μM, 3 hr, FIG. 17
[18] = Example 6, FIG. 14, read-out: IC50 value against F. graminearum
[19] = activity of the indicated protein against Fusarium graminareum, Table 1, read-out: IC50 (nm)
[20] = Example 2, PIP Strips, 1 μg/ml protein, FIG. 9
[21] = Example 6, PIP strip, 3 μg/ml protein, FIG. 18A

MsDef1: Alfalfa (Medicago sativa) Defensin 1, SEQ ID NO:79 (RTCENLADKYRGPCFSGCDTHCTTKENAVSGRCRDDFRCWCTKRC; listed as Medicago sativa)
IC50, Fusarium culmorum growth [1]: 1 µg/mL
IC50, Verticillium dahliae growth [2]: 4 µg/mL

MtDef4: Medicago truncatula defensin peptide, SEQ ID NO:76 (RTCESQSHKFKGPCASDHNCASVCQTERFSGGHCRGFRRRCFCTTHC; listed as Medicago truncatula) [reference compound]
minimal inhibitory concentration (MIC or IC100) against F. graminearum ([3]; Example 6, FIG. 14): 6 µM
IC50 [3, 18]: 750 to 1500 nM

MtDef5A: single 50-amino acid MtDef5 defensin peptide A, SEQ ID NO:4 (KLCQKRSTTWSGPCLNTGNCKRQCINVEHATFGACHRQGFGFACFCYKKC; listed as Medicago truncatula)
IC50 [3, 19]: 500 to 750 nM
binding to PI3P, PI4P and PI5P [4]: much less affinity than MtDef5FL1
binding to PI3,4P2 [5, 20]: also binds
binding to PI3,5P2 [5, 20]: also binds
binding to PI4,5P2 [5, 20]: also binds
binding to PS [5, 20]: fails to bind

NaD1: Nicotiana alata defensin peptide, SEQ ID NO:81 (RECKTESNTFPGICITKPPCRKACISEKFTDGHCSKILRRCLCTKPC; listed as Nicotiana alata) [reference compound]
IC50 [3, 19]: 500 nM

TPP3: Tomato (Solanum lycopersicum) defensin peptide, SEQ ID NO:83 (QQICKAPSQTFPGLCFMDSSCRKYCIKEKFTGGHCSKLQRKCLCTKPC; listed as Solanum lycopersicum) [reference compound]
IC50 [3, 19]: 500 nM

B1: MtDef5FL1_V1 (other)
chain: KLCQAASTTWSGPCLNTGNCKRQCINVEHATFGACAAQGFGFACFCYKKCAPKKVEPKLCEAASKTWSGPCLISGNCKRQCINVEHATSGACAAQGIGFACFCKKKC
notes: Alanine variant expressed in P. pastoris; also called MtDef5FL1 γ-core motif variant V1
oligomerization in presence of PIPs [6]: no formation of higher order oligomers
binding result [7]: no binding (tested: 1.5 mg/ml protein)

B2: MtDef5FL1: Medicago truncatula protein with MtDef5 defensin peptides A and B connected by a 7-amino acid linker; SEQ ID NO:7, expressed in Pichia (protein, listed as Medicago truncatula)
chain: CQKRSTTWSGPCLNTGNCKRQCINVEHATFGACHRQGFGFACFCYKKCAPKKVEPKLCERRSKTWSGPCLISGNCKRQCINVEHATSGACHRQGIGFACFCKKKC
IC100 value against F. graminearum ([3]; Example 1, FIG. 5A): 0.18 µM
IC50 ([3]; Example 1, FIG. 5A, read-out: IC50 value against F. graminearum): 90 nM
minimal inhibitory concentration (MIC or IC100) against F. graminearum ([3]; Example 6, FIG. 14): 0.75 µM
minimal inhibitory concentration (MIC or IC100) against F. graminearum ([3]; Example 6, FIG. 14, listed as MtDef5): 0.7 to 0.75 µM
IC50 [3, 18]: 250 to 300 nM
IC50 [3, 19]: 90 nM
potency relative to MtDef4, based on the MIC values ([3]; against F. graminearum): 3 to 5 fold
concentration inhibiting conidial germination completely (100% growth inhibition) ([3]; microscopic observation after 14-16 hr incubation, FIG. 5B): 0.18 µM
IC100 value against F. virguliforme [8]: 0.18 µM
antifungal activity against F. virguliforme [8]: potent antifungal activity
concentration inhibiting conidial germination completely (100% growth inhibition) [8]: 0.18 µM
IC50 ([8]; read-out: IC50 value against F. virguliforme): 90 nM
IC100 value against N. crassa [9]: 0.18 µM
concentration inhibiting conidial germination completely (100% growth inhibition) [9]: 0.18 µM
minimal inhibitory concentration (MIC or IC100) against Neurospora crassa [9]: 0.7 to 0.75 µM and 0.75 µM
IC50 ([9]; read-out: IC50 value against N. crassa): 90 nM
IC50 ([9]; read-out: IC50 value against Neurospora crassa): 250 to 300 nM
antifungal activity against Alternaria brassicicola [10]: potent antifungal activity
antifungal activity against Colletotrichum higginsianum [11]: potent antifungal activity
antifungal activity against Botrytis cinerea (Bci) [12]: potent antifungal activity
SG uptake (plasma membrane permeabilization) ([13]; 0.180 μM (IC100) protein + 0.5 μm SG, 2 hrs, FIG. 6): SG uptake was observed
SG uptake in hyphal cells ([13]; 0.75 μM MtDef5FL1, 3 hr, FIG. 16): SG uptake was visible
SG uptake (plasma membrane permeabilization) [14]: SG uptake was observed
SG uptake (plasma membrane permeabilization) [15]: SG uptake was observed
SG uptake in hyphal cells [15]: SG uptake was visible
binding to PI3P, PI4P and PI5P [4]: strongly binds; also recorded: significantly increases its binding affinity
binding to PI3P, PI4P and PI5P (PIPs) ([4]; Example 6, PIP strip, 3 μg/ml protein, FIG. 18A, FIG. 22): strongly binds
amount of PIP per spot at which binding to all three PIPs was observed ([4]; PIP Array, FIG. 18B): ≤ 12.5 pmoles per spot
binding to PI3,4P2 [5, 20]: binds to a lesser extent
binding to PI3,5P2 [5, 20]: binds to a lesser extent
binding to PI4,5P2 [5, 20]: binds to a lesser extent
binding to PS [5, 20]: binding to PS, is generated
binding to PI3,5P2 [5, 21]: binds to a lesser extent
binding to PI4,5P2 [5, 21]: binds to a lesser extent
binding to phosphatidylserine (PS) [5, 21]: binds to a lesser extent
binding to phoshatidic acid (PA) [16]: binds to a lesser extent
oligomerization in presence of PIPs [6]: formed higher-order oligomers only in the presence of PIPs; also recorded: forms higher order oligomers in presence of PIPs
internalization and localization in fungal cells [17]: is internalized by fungal cells; also recorded: diffuse localization within the cytoplasm
